Assay [1] has as its system human respiratory epithelial A549 cells (HAdV-C5_GFP). Kind of assay: HAdV-C5_GFP transduction of A549 cells. It counts as cell-based. From the text: For all transduction experiments, GFP-expressing vectors were used. The HAdV_GFP vector was purchased from Vector Development Laboratory. All mutated HAdV-C5 vectors were generated in the laboratory of A. Plückthun at the University of Zürich using the AdEasy system (Agilent) to contain an internal ribosome entry site (IRES)-luciferase (Luc)-GFP cassette for detection of transduction. To investigate the role of integrins in transduction, HAdV-C5-IRES-GFP with an intact RGD loop in the penton base protein (-DMNDHAIRGDTFATRAE-) and HAdV-C5-ΔRGD-IRES-GFP (-DMNDTSRAEEKRAE-), known not to bind integrins ([40]), were generated. To determine the binding site for hLF/hLfcin on the hexon protein, hexon-mutated vectors were produced with HVR-1 of HAdV-C5 ([43]) replaced with the corresponding sequence of HAdV-A31, as well as a HAdV-C5 vector mutated in HVR-7 ([44]).
For experiments in A549 cells, 15,000 cells were seeded into a black 96-well plate with a transparent bottom. For experiments with CHO-K1 cells, 20,000 cells were seeded. After 24 h, HAdV-C5 vectors was complexed with 2 μM Lfcin or with ∼12 μM (1 mg/ml) of LF and, after 60 min, added to the cells on ice. The blocking of CAR using soluble HAdV-C5 fiber knob was performed using 10 μg/ml of recombinant knob. After another 60 min, unbound complex was washed away using Dulbecco’s modified Eagle’s medium (DMEM), followed by final addition of fresh medium. After 44 h, the cells were fixed using 4% paraformaldehyde (PFA) for 10 min, and GFP expression was imaged using a Trophos system (Luminy Biotech Entreprises). For the hexon chimeric viruses, transduction was instead quantified by measuring the luciferase activity at 44 h postinfection using a Pierce luciferase glow assay kit.

Assay [2] concerns A549 cells (HAdV-C5 virions). Kind of assay: 35S-labeled HAdV-C5 virion binding to A549 cells. It counts as cell-based, Human. Conditions: at this concentration (2 μM), Fig. 1C. As for the experimental part:
A549 cells were detached using phosphate-buffered saline (PBS) plus 0.05% EDTA with slow rocking at 37°C. Once detached, the cells were centrifuged at 1,500 × g for 5 min, resuspended in growth medium to about 2 × 10^6 cells/ml, and allowed to recover at 37°C, slowly rocking to keep the cells in suspension. While recovering, the HAdV-Lfcin complex was set up. Lfcin (2 μM), or an equivalent volume of PBS, was mixed with ^35S-labeled HAdV (15,000 particles/cell) in medium and left on ice at 4°C for 60 min. After 60 min of recovery, the cells were counted, and 150,000 viable cells were added to each well of a 96-V-shaped-well plate and centrifuged for 5 min at 1,500 × g. Once pelleted, the cells were resuspended in the HAdV-Lfcin solution or in HAdV-PBS solution and incubated on ice for 60 min at 4°C. After 60 min, the cells were pelleted and washed once in medium and once in PBS before the addition of scintillation fluid and quantification using a Wallac 1450 Microbeta counter (Trilux).

B1: bovine lactoferrin (protein, UniProt P24627 20-708, looked up)
Lactotransferrin: APRKNVRWCTISQPEWFKCRRWQWRMKKLGAPSITCVRRAFALECIRAIAEKKADAVTLDGGMVFEAGRDPYKLRPVAAEIYGTKESPQTHYYAVAVVKKGSNFQLDQLQGRKSCHTGLGRSAGWIIPMGILRPYLSWTESLEPLQGAVAKFFSASCVPCIDRQAYPNLCQLCKGEGENQCACSSREPYFGYSGAFKCLQDGAGDVAFVKETTVFENLPEKADRDQYELLCLNNSRAPVDAFKECHLAQVPSHAVVARSVDGKEDLIWKLLSKAQEKFGKNKSRSFQLFGSPPGQRDLLFKDSALGFLRIPSKVDSALYLGSRYLTTLKNLRETAEEVKARYTRVVWCAVGPEEQKKCQQWSQQSGQNVTCATASTTDDCIVLVLKGEADALNLDGGYIYTAGKCGLVPVLAENRKSSKHSSLDCVLRPTEGYLAVAVVKKANEGLTWNSLKDKKSCHTAVDRTAGWNIPMGLIVNQTGSCAFDEFFSQSCAPGADPKSRLCALCAGDDQGLDKCVPNSKEKYYGYTGAFRCLAEDVGDVAFVKNDTVWENTNGESTADWAKNLNREDFRLLCLDGTRKPVTEAQSCHLAVAPNHAVVSRSDRAAHVKQVLLHQQALFGKNGKNCPDKFCLFKSETKNLLFNDNTECLAKLGGRPTYEEYLGTEYVTAIANLKKCSTSPLLEACAFLTR
notes: bovine lactoferrin from cow milk (Sigma)
In the case of B1, in assay [1] (LF 1 mg/ml preincubated with HAdV-C5_GFP, GFP imaging after 44 h (Fig. 1A)), the “effect of LF on HAdV-C5_GFP transduction of A549 cells (in words)” value is given as “Neither bLF nor rhLF affected HAdV-C5_GFP transduction”. Further, the “effect on HAdV-C5 transduction of A549 cells (in words)” value in assay [1] (at this concentration (2 μM), Fig. 1D) was “no or little effect”. For the same molecule, the “effect on HAdV-C5 binding to A549 cells (in words)” value in assay [2] is recorded as “no or little effect”.
